This is an account of results in the nanobody polyreactivity screen of Harvey et al. (2022).

The data set in a line: yeast display, Sf9 membrane polyspecificity reagent, FACS + sequencing; frameworks hold sequencing errors. The essentials: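 After 36–48 hours of galactose induction, yeast (Saccharomyces cerevisiae BJ5465) displaying a synthetic nanobody library were stained at 4 °C for 1 hour with 10% biotinylated, detergent-solubilized Sf9 membrane reagent. Streptavidin microbeads enriched the stained cells before FACS sorting into low and high (top ~1%) gates on anti-HA and streptavidin fluorescence. Each clone's polyreactivity label reflects its gate of origin.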
As for “QVQLVESGGGLVQAGGSLRLSCAASGRILTSNAMGWYRQAPGKERELVAAISWSGGSTYYADSVKGSFTISRDNAKNTVYLQMNSLKPDDSAVYYCAAPFTTTFDYSGQGTQVTVSS”, the “polyreactivity (PSR sort gate)” value is on record as “low polyreactivity”. For the sequence “QDQLVESGGGLVQAGGSLRLSCAASGRNFSFNPMGLYRQAPGKERELVATIRTDGTTNYADSVKGRFTISRDNAKNTVYVQMNSLKPEDTAVYYCAADSAYHRRRMYYWGQGTQVTVSS”, the “polyreactivity (PSR sort gate)” value is “high polyreactivity”. For “QVQLVESGGGLVQAGGSLRLSCAASGSIFGSNAMGWYRQAPGKERELVAAISYRGGSTYYADSVKGRFTISRDNAKNTVYLQMNSLKPEDTAFYYCAKVSSYKPYDYWGLGTQVTVSS” the value was “low polyreactivity”; for “QVQLVESGGGLVQAGGSLRLSCAASGYTFSNNAMGWYRQAPGKERELVAAISRSTGSTYYADSVKGRFTISRDNAKNTVYLQMNSLKPEDTAVYYCAAEYYVDKSSWYDYWGQGTQVTVSS”, “high polyreactivity”.

Turning to “QVQLVESGGGLVQAGGSLRLSCAASGRTLRYYAMGWYRQAPGKERELVASISIGGSTFYADSVKGRFTISRDNAKNTVYLQMNSLKPEDTAVYYCAAENFWQTKEYDYWGQGTQVTVSS”, the “polyreactivity (PSR sort gate)” value is “low polyreactivity”. Consider “QVQLVESGGGLVQAGGSLLLTCAASGIIFVIYAMGWYRQAPGKERELVAAITSDGSTSYADSVKGRFTISRDNAKNTVYLQMNSLKPEDTAVYYCAKDFFEHSPVSHTYSSSKYDYWGQGTQVTVSS”, for which the “polyreactivity (PSR sort gate)” value is listed as “low polyreactivity”. For the sequence “QDQLVESGGGLVQAGGSLRLSCAASGYIFRYYAMGWYRQAPGKERELVAAISWNGGRTYYADSVKGRFTISRDNAKNTVYLQMNSLKPEDTAVYYCNTYWDGAREYDYWGQGTQVTVSS”, the “polyreactivity (PSR sort gate)” value is reported as “high polyreactivity”. Then “QVQLVESGGGLVQAGGSLRLSCAASGRTHIYAMGWYRQAPGKERELVAGISRSGTRTYYADSVKGRFTISRDNAKNTVYLQMNSLKPEDSAVYYCNAQAYYQGYDYWGQGTQVTVSS”, with “high polyreactivity”; and “QVQLVESGGGLVQAGGSLRLSCAASGFIFDKNAMGWYRQAPGKERELVATITSGGSTYYADSVKGRFTISRDNAKNTVYFQMNSLKPDETAVYYCAALDYGYRWYRYYYWGQGTQVTVSS”, with “high polyreactivity”; and “QVQLVESGGGLVQAGGSLRLSCAASGSTFTFYAMGWYRQAPGKQRELVATISSSGVSTSYADSVKGRFTISRDNAKNTVDLEMNSLKPEDTAVYYCNAGYRRRFIFDYWGQGTQVTVSS”, with “low polyreactivity”. For “QDQLVESGGGLVQAGGSLRLSCAASGSTFPPYAMGWNRQAPGKERELVDTSTRIGGSTYYADSVKGRFTISRDNAKKTVYLQKNSLKPEDTALYYCTARRYQSYRYYYWGQGTQVTVSS” the value was “high polyreactivity”; for “QVQLVESGGGLVQARGSLRLSSAASGSTFYDYAMGWYRHAPGKERELVAAISGNGDSTYYADSVKGRFTISRDNAKNTVYLQMNSLNPEDTAVYYCAAYLGWGYDYWGQGTQVTVSS”, “low polyreactivity”; for “QVQLVEAGVCLVQSGGRLRLSCAATGFTFTSKVIGWSRQAPGKERELVADISASDGRTYYADSVKGRFRISRENAKNTVYLQMNRLKTEDTAVYYCAASLWVYVGQARYHWYDYWGQGTQVTVSS”, “low polyreactivity”. Then “QVQLVESGGGLVQAGGSLRLSCAASGGTFSLYAMGWYRQAPGKEREFVAAISWRGTSTYYADSVKGRFTISRDNAKNTVYLQMNSLKPEDTAVYYCAARAWHEYGSWGQGTQVTVSS”, with “high polyreactivity”; and “QVQLVESGGGLVQAGGSLRLSCAASGFTFDSYAMGWYRQAPGKERELVAAITSDGSTYYADSVKGRFTISRDNAKNSVYLQMNSLKPEDTAVYYCAADGISLYATAYDFWGQGTQVTVSS”, with “low polyreactivity”. Consider “QVKLVESGGGLVQAGGSISLTCAASGSIFYKYVMGWYRQAPGKERELVAAISRGGGSTYYADSVKGRFTISRDNAKNTVYLQMNSLKPEDTAVYYCYAVGRPRYGHGFDHWGQGTQVTVSS”, for which the “polyreactivity (PSR sort gate)” value is “high polyreactivity”. On to “QVQLVESGGGLVQAGGRLRLSCAASGGIFIKNAMGWYRQAPGKERELVAGISSGGNTYYADSVKGRFTISRDNAKNTVYLQMNSLKPEDTAVYYCAVRYYRRFGPLYDSWGQGTHVTVSS”, for which the “polyreactivity (PSR sort gate)” value was “low polyreactivity”. For “QVQRVESGGGLVQAGVSLRLSCASSGITFDVNALGWYRQAPGKERELVAAITAGGNTYYADSVKGRFTISRDKAKTTVYLQMNSLKPEETAVYYCAAVSTSLYWAGYDYWGQGTQVTVSS” the value was “low polyreactivity”; for “QVQLVESGGGLVQAGGSLRLSCAASGFIFYGYAMGWYRQAPGKERELVAGISTGGSTNYADSVKGRFTISRDNAKNTVYLQMNSLKPEDTAVYYCAKRAYFYYGRYDYWGQGTQVTVSS”, “low polyreactivity”; for “QVQLVESGGGLVQAGGSLRLSCASSGITFNLNDMGWYRQAPGKERELVAAITSGGNTSYADSVKGRFTISRDNAKNTVYLQMNSLKPEDTAVYYCATEDFRTDTGMYYWGQGTQVTVSS”, “low polyreactivity”. For “QVQLVESGGGLVQAGGSLRLSCAASGRIFPYYVMGWYRQAPGKERELVAAISRSGSSTYYADSVKGRFTISRDNAKNTVYLQMNSLKPEDTAVYYCAADYNWSPYYTRGDYWGQGTQVTVSS” the value was “high polyreactivity”.

Turning to “QVQRVESGGGLVQAGGRLRISCAASGRTFRGNDMGWYRQAPGKERELVPTITRNGGSTRYADSVKGRFTISRDNAKNTVYLQMNSLQPEDTAVYYCAAREKYTPALEVEYWGQGTQVTVSS”, the “polyreactivity (PSR sort gate)” value is “high polyreactivity”.

Regarding “QVQIVESGGGLVQAGGSLRLSCAASGRTFSKYAMGWYRQSTWKERELVASITWSGGTTNYADSVKGRVTISRDNAKNTVYLQMNSLKPEDTAVFYCNAQIASDGFNPGKSDYWGLGTQVTVSS”, the “polyreactivity (PSR sort gate)” value is reported as “low polyreactivity”. Take “QDQLVESAGGLVQAGGSLRLSCAASGFTFINNDMGWYRQAPGKERELVAAISDSDGTTYYADSVKGRFTISLDHAKNTVYLQMNSLKPEDTAGYYCAADVVPTWEDEYWRQGTQVTVSS”: the “polyreactivity (PSR sort gate)” value was “low polyreactivity”.

“QVQLVESRGGLLQAGGSLRLSCAASGSIFKYYSMGSYRQAPGKERELVAAIRWSGGTTYYADSVKGRFTISRDNAKNTVYLQMNSLKPEDTAVYYCAAEYFNQNTREGYDYWGQGSQVTVSS”: the “polyreactivity (PSR sort gate)” value is “low polyreactivity”. Then “QVQLVESGGGLVQAGGSLRLSCAASGRTFVTNAMGWYRQAPGKETELVAAISGTGGSTYYADSVKGRFTISRDNAKNTVYLQMNSLKPEDTAVYYCAAQKWRRGRYRDTAGPLFAYDYWGQGTQVTVSS”, with “low polyreactivity”; and “QVQLVESGGGLVQAGGSLSLSCAASGRIFPYNDLGWYRQAPGKERELVADINSGDSTNYADSVKGRFTISRDNAKNTVYLQMNSLKPEDTAVYYCAAGYVRYPGVIDEYWGQGTQVTVSS”, with “low polyreactivity”; and “QVQLVESGGGLVQAGGSLRLSCAASGRIFATYAMGWYRQAPGKERELVARITFTSGSTYYADSVKGRFTISRDNAKNTVYLQMNSLKPEDTAVYYCAAPWSVTRTSFDYWGQGTQVTVSS”, with “high polyreactivity”. “QFQLVESGGGLVQAGGSLRLSCAASGFTFSGYAMGWYRQAPGKERELVAAINWRGDSTYYADSVKGRFTISRDNAKNTVYLHMNSLKPEDTAVYYCYVVLGPQRYSTDYGYWGQGTQVTVSS”: the “polyreactivity (PSR sort gate)” value is reported as “high polyreactivity”.

As to “QVQLVESGGGLVQAGGSLSLSCAATAFTFTYYAMGWYRQAPGKERELVAAITYSGGTTYYADSVKGRFTISRDNAKNTVYLQMNSLKPEDTAVYYCAAVPYYVLARSFYRYGYWGQGTQVTVSS”, the “polyreactivity (PSR sort gate)” value was “low polyreactivity”.
